Experimental data reported in PMC12183618.

Assays:
[1] = biological target: MmpL10‐mEGFP‐FLMsm (Mycobacterium smegmatis); test: SEC; Superose 6 Increase 10/300 GL, 50 mM Tris-HCl pH 8, 150 mM NaCl, 3x CMC LMNG (m1 also in DDM and LDAO); apparent MW from a calibration curve
[2] = biological target: MmpL10‐mEGFP‐FLMsm (Mycobacterium smegmatis); test: negative-stain electron microscopy; top SEC peak fraction in LMNG at 0.5 μM, uranyl acetate 1%; low-resolution map, C1 symmetry, fitted with a trimeric AlphaFold v3 model

stoichiometry N [1]: 3
stoichiometry N [2]: 3
Substance: MmpL10‐mEGFP‐FLMsm (natural protein)
